# Measured values as given in patent publication US20050271676A1, “Inducing cellular immune responses to human immunodeficiency virus-1 using peptide and nucleic acid compositions” (Epimmune Inc., priority 1993, published 2005).
# No end group written: not given here.
# Experiments:
# [1] = biological target: T1, HLA-DRB1*0901 (DR9) (Homo sapiens, UniProt P01903+P01911, A100R/A103E/D57H/D86V/F55Y/F60I/F76Y/I96F/K127E/L162R/M171V/P40D/Q125H/Q99R/R33Q/R42F/S133A/S66N/T210M/V115G/W38K/Y107V/Y59G/Y89S); assay: biochemical; format: binding
# T1 construct: endogenous in cells
# [2] = biological target: HLA-DRB1*1302 (DR6w19) (Homo sapiens, UniProt P01903+P01911, A100E/A169T/K41T/L162R/M171V/P40S/Q125H/Q178H/Q39Y/Q99D/R42S/S66N/T262R/V115G/W38E/Y61H); assay: purified HLA class II binding assay, DRB1*1302 (DR6w19); details: for DR6w19 binding: HIV DR super motif peptides, unit not given
# [3] = biological target: T2, HLA-DRB1*1101 (DR5w11) (Homo sapiens, UniProt P01903+P01911, A100R/A169T/A87E/I96F/K41T/L162R/M171V/P40S/Q125H/Q178H/Q39Y/Q99D/R42S/S66Y/T262R/V115G/W38E); assay: biochemical; format: binding
# T2 construct: endogenous in cells
# [4] = biological target: T3, HLA-DRB1*0301 (DR3) (Homo sapiens, UniProt P01903+P01911, A100K/A102G/A103R/A169T/F55Y/I96L/K41T/L162R/M171V/P40S/Q125H/Q178H/Q39Y/R42S/S66N/T106N/T262R/W38E/Y61H); assay: purified HLA class II binding assay, DRB1*0301 (DR3), pH 4.5; details: for DR3 binding: HIV DR super motif peptides, unit not given
# T3 construct: endogenous in cells; host or cells: MAT
# [5] = biological target: T4, HLA-DRB1*1501 (DR2w2β1) (Homo sapiens, UniProt P01903+P01911); assay: purified HLA class II binding assay, DRB1*1501 (DR2w2β1); details: for DR2 wβ1 binding: HIV DR super motif peptides, unit not given
# T4 construct: expressed in transfected cells
# [6] = biological target: T5, HLA-DRB1*1201 (DR5w12) (Homo sapiens, UniProt P01903+P01911, A100R/A169T/D57E/D86V/F55L/H45Y/K41T/L162R/M171V/P40S/Q125H/Q178H/Q39Y/Q99D/R42G/S66L/T262R/V114A/V67L/W38E/Y59H/Y61H/Y89S); assay: purified HLA class II binding assay, DRB1*1201 (DR5w12); details: for DR5w12 binding: HIV DR super motif peptides, unit not given
# T5 construct: endogenous in cells
# [7] = biological target: T6, HLA-DRB5*0101 (DR2w2β2) (Homo sapiens, UniProt P01903+Q30154); assay: biochemical; format: binding
# T6 construct: expressed in transfected cells
# [8] = biological target: T7, HLA-DRB1*0701 (DR7) (Homo sapiens, UniProt P01903+P01911, A100R/A102G/A103Q/D57E/D86V/E43K/F76Y/K127E/L162R/M171V/P40G/Q125H/Q99D/R33Q/R42Y/R54Q/S133A/S66F/T210M/V115G/Y107V/Y59L/Y89S); assay: biochemical; format: binding
# T7 construct: endogenous in cells; host or cells: Pitout
# [9] = biological target: T8, HLA-DRB1*0401 (DR4w4) (Homo sapiens, UniProt P01903+P01911, A100K/A169T/F76Y/I96L/K127E/L162R/M171V/N62H/P40V/Q125Y/R42H/S133A/S149N/S66Y/V115G/V209L/W38E); assay: purified HLA class II binding assay, DRB1*0401 (DR4w4); details: for DR4w4 binding: HIV DR super motif peptides, unit not given
# T8 construct: endogenous in cells; host or cells: Preiss
# [10] = biological target: T9, HLA-DRB1*0802 (DR8w2) (Homo sapiens, UniProt P01903+P01911, A100R/A103L/A169T/F76Y/H45Y/I96F/K41T/L162R/M171V/P40S/Q125H/Q178H/Q39Y/Q99D/R218S/R42G/S66Y/V115G/W38E); assay: biochemical; format: binding
# T9 construct: endogenous in cells
# [11] = biological target: HLA-A*0101 (Homo sapiens, UniProt P04439, A114D/A174V/A182V/D101N/D185E/E176A/E190D/L180R/Q94H/R68K/S129P/T187R/V100A/V91M/W191G); assay: biochemical; format: binding
# [12] = biological target: T10, HLA-A*0301 (Homo sapiens, UniProt P04439); assay: purified HLA class I binding assay, A*0301; details: for A*0301 binding information: binding value
# T10 construct: endogenous in cells; host or cells: GM3107
# [13] = biological target: HLA-A*1101 (Homo sapiens, UniProt P04439, A114D/D185E/E176A/F33Y/L180Q/S129P/T187R); assay: purified HLA class I binding assay, A*1101; details: for A*1101 (binding information): binding value
# [14] = biological target: HLA-A*3101 (Homo sapiens, UniProt P04439, A270S/D185E/E176V/E277Q/F33T/G231S/G80R/H175R/I121M/I218V/I322F/K168Q/L300P/L318F/M331R/P217A/Q94H/R138Q/T323A/T345S/T97I/V358M); assay: purified HLA class I binding assay, A*3101; details: for A*3101 binding information: binding value
# [15] = biological target: HLA-A*3301 (Homo sapiens, UniProt P04439, A270S/D185E/E176V/E277Q/E87N/F33T/G231S/H175R/I121M/I218V/I322F/K168Q/K210R/L300P/L318F/M331R/P217A/Q86R/Q94H/R138Q/T323A/T345S/T97I/V358M/Y195H); assay: purified HLA class I binding assay, A*3301
# [16] = biological target: HLA-A*6801 (Homo sapiens, UniProt P04439, A269V/D185E/E176V/E277Q/E87N/F33Y/G231S/I121M/I166T/I218V/L180W/L300P/L318F/N151K/P208A/P217A/Q86R/R169H/T345S); assay: purified HLA class I binding assay, A*6801; details: for A*6801 binding information: binding value
# [17] = biological target: HLA-B*5401 (Homo sapiens, UniProt P01889, A329T/C349S/D138N/D201E/E176V/E187T/E204Q/E69G/I76V/K202T/L119W/R155S/R180L/S121T/S35A/S48A/V127L/V306I/V36M/Y140L); assay: biochemical
# [18] = Table XXb, HIV DR 3a motif peptides
# [19] = HIV A03 supermotif peptides, no unit given
# [20] = Table IX, HIV A03 super motif peptides, unit not given
# T2 sequence (P01903 26-254, other chains not shown): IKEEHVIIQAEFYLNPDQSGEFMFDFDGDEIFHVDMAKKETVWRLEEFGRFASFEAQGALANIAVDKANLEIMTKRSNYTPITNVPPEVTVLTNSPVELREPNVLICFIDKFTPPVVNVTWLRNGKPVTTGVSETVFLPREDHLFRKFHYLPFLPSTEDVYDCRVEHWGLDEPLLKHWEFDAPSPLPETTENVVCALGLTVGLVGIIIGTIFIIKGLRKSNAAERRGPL
# T8 sequence (P01903 26-254 partner, other chains not shown): as the sequence (P01903 26-254, other chains not shown) above
# T3 sequence (P01903 26-254 partner, other chains not shown): as the sequence (P01903 26-254, other chains not shown) above
compound,measurement,setting,value
CC[C@H](C)[C@H](NC(=O)CNC(=O)[C@H](CCCCN)NC(=O)[C@H](Cc1c[nH]cn1)NC(=O)[C@H](C)NC(=O)[C@@H]1CCCN1C(=O)[C@@H](NC(=O)[C@H](Cc1c[nH]c2ccccc12)NC(=O)[C@H](C)NC(=O)[C@H](CC(C)C)NC(=O)[C@H](Cc1ccc(O)cc1)NC(=O)[C@@H](NC(=O)[C@@H](N)CCCCN)C(C)C)C(C)C)C(=O)NCC(=O)NCC(=O)O [Peptide 1280.03],IC50,[1],250 nM
same,IC50,[2],2500 nM
same,IC50,[3],71 nM
same,IC50,[4],> 20 µM
same,IC50,[5],25 nM
same,IC50,[6],12.6 µM
same,IC50,[7],24 nM
VTVYYGVPVWKEATI,DR5w11 binding,[3],0.0021
same,DR7 binding,[8],0.0160
same,DR4w4 binding,[9],0.0071
same,DR2w2β2 binding,[7],0.0270
SPEVIFMFSALSEGA,DR9 binding,[1],0.0130
same,DR6w19 binding,[2],0.0007
same,DR5w11 binding,[3],0.0075
same,DR3 binding,[4],−0.0043
same,DR7 binding,[8],−0.0007
same,DR8w2 binding,[10],0.0130
same,DR2 wβ1 binding,[5],0.0280
same,DR4w4 binding,[9],0.1600
same,DR5w12 binding,[6],−0.0045
same,DR2w2β2 binding,[7],0.0034
QKEPPFLWMG,A*0101 (binding affinity ratio),[11],0.0004
QHLLQLTVWGIKQLQ [Peptide 27.0297],IC50,[2],350 nM
same,IC50,[4],> 20 µM
same,IC50,[8],44 nM
same,IC50,[10],907 nM
same,IC50,[5],21 nM
same,IC50,[7],690 nM
CC[C@H](C)[C@H](NC(=O)[C@H](C)N)C(=O)N[C@@H](Cc1ccccc1)C(=O)N[C@@H](CCC(N)=O)C(=O)N[C@@H](CO)C(=O)N[C@@H](CO)C(=O)N[C@@H](CCSC)C(=O)N[C@H](C(=O)N[C@@H](CCCCN)C(=O)O)[C@@H](C)O [Peptide 966.01],IC50,[12],10 nM
same,IC50,[13],10 nM
same,IC50,[14],12000 nM
same,IC50,[15],96.7 µM
IVIWGKTPK [1193.0200],IC50,[13],16.2 nM
same,IC50,[14],18.2 nM
same,IC50,[15],0.0967 µM
ASGYIEAEVIPAFTG,DR9 binding,[1],0.0320
same,DR6w19 binding,[2],0.0400
same,DR5w11 binding,[3],0.0020
same,DR3 binding,[4],−0.0043
same,DR7 binding,[8],0.0710
same,DR8w2 binding,[10],−0.0003
same,DR2 wβ1 binding,[5],−0.0003
same,DR4w4 binding,[9],0.2300
same,DR5w12 binding,[6],−0.0045
same,DR2w2β2 binding,[7],−0.0021
CC[C@H](C)[C@H](NC(=O)[C@H](Cc1ccccc1)NC(=O)[C@@H](NC(=O)[C@H](C)N)C(C)C)C(=O)N[C@@H](Cc1c[nH]cn1)C(=O)N[C@@H](CC(N)=O)C(=O)N[C@@H](Cc1ccccc1)C(=O)N[C@@H](CCCCN)C(=O)N[C@@H](CCCNC(=N)N)C(=O)O [1193.03],IC50,[12],64.7 nM
same,IC50,[13],3.3 nM
same,IC50,[14],5.1 nM
same,IC50,[15],0.107 µM
KLAGRWPVK [1069.44],IC50,[12],8.5 nM
same,IC50,[14],500 nM
same,IC50,[15],72.5 µM
same,IC50,[16],80 µM
LVAVIIVASGY,A*0101 (binding affinity ratio),[11],0.0390
same,A*0101 (binding information),[11],0.0390
TTLFCASDAK [1273.07],IC50,[12],120 nM
same,IC50,[13],27.3 nM
same,IC50,[14],9470 nM
same,IC50,[15],14.5 µM
VIFMFSALSEGATPQ,DR5w11 binding,[3],−0.0010
same,DR7 binding,[8],−0.0007
same,DR4w4 binding,[9],0.0058
same,DR2w2β2 binding,[7],−0.0014
VTVLDVGDAY [Peptide 1069.26],IC50,[11],439 nM
VMIVWQVDR [Peptide 1273.08],IC50,[13],273 nM
same,IC50,[14],3.8 nM
same,IC50,[15],0.0053 µM
TIKIGGQLK [1273.05],IC50,[12],40.7 nM
same,IC50,[14],18000 nM
same,IC50,[15],36.3 µM
KIQNFRVYYR [1211.32],IC50,[14],2.7 nM
same,IC50,[15],0.341 µM
IKKEKVYLA,DR9 binding information,[1],0.0011
same,DR6w19 binding information,[2]; [18],−0.0003
same,DR7 binding information,[8],−0.0005
same,DR8w2 binding information,[10],−0.0015
NTPVFAIKK [1273.02],IC50,[13],100 nM
same,IC50,[14],30000 nM
same,IC50,[15],48.3 µM
NNLLRAIEAQQIILLQ,DR7 binding,[8],0.0150
same,DR4w4 binding,[9],0.0150
PPVVAKEIVASCDKC,DR5w11 binding information,[3],0.0006
same,DR3 binding information,[4]; [18],−0.0130
same,DR4w4 binding information,[9]; [18],0.0085
same,DR2w2β2 binding information,[7],−0.0021
IPIHYCAPA [1296.01],IC50,[17],3.7 nM
KLTEERWNK,A*0301 binding information,[12]; [19],0.0130
same,A*1101 (binding information),[13]; [19],0.2700
same,A*3101 binding information,[14]; [19],0.0680
same,A*6801 binding information,[16]; [19],0.0002
YLAWVPAIIK,A0301 binding,"[12]; HIV A03 motif peptides, Table XVI, column A0301, unit not given",0.0770
same,A*0301 binding information,[12]; [20],0.0770
same,A*1101 (binding information),[13]; [20],0.0570
same,A*1101 (HIV A11 Motif Peptides with Binding Information),"[13]; binding value to purified HLA-A*1101 in Table XVII, unit not given",0.0570
same,A*3101 binding information,[14]; [20],0.0550
same,A*6801 binding information,[16]; [20],4.0000
